Experimental findings from patent KR20160093502A (dated 2016) are described below.

The target of the assay is T1, EPRS (glutamyl-prolyl tRNA synthetase), human 세포에서 원래 발현된 EPRS (Hela cell lysate) (human, UniProt P07814 1-1512).
T1 construct: Endogenous protein in 50 ug HeLa lysate, denatured on a western blot; also called endogenous EPRS in HeLa cell lysate
Put plainly: western blot on HeLa cell lysate (clones from panning on EPRS WHEP domain antigen).

T1 sequence (P07814 whole entry): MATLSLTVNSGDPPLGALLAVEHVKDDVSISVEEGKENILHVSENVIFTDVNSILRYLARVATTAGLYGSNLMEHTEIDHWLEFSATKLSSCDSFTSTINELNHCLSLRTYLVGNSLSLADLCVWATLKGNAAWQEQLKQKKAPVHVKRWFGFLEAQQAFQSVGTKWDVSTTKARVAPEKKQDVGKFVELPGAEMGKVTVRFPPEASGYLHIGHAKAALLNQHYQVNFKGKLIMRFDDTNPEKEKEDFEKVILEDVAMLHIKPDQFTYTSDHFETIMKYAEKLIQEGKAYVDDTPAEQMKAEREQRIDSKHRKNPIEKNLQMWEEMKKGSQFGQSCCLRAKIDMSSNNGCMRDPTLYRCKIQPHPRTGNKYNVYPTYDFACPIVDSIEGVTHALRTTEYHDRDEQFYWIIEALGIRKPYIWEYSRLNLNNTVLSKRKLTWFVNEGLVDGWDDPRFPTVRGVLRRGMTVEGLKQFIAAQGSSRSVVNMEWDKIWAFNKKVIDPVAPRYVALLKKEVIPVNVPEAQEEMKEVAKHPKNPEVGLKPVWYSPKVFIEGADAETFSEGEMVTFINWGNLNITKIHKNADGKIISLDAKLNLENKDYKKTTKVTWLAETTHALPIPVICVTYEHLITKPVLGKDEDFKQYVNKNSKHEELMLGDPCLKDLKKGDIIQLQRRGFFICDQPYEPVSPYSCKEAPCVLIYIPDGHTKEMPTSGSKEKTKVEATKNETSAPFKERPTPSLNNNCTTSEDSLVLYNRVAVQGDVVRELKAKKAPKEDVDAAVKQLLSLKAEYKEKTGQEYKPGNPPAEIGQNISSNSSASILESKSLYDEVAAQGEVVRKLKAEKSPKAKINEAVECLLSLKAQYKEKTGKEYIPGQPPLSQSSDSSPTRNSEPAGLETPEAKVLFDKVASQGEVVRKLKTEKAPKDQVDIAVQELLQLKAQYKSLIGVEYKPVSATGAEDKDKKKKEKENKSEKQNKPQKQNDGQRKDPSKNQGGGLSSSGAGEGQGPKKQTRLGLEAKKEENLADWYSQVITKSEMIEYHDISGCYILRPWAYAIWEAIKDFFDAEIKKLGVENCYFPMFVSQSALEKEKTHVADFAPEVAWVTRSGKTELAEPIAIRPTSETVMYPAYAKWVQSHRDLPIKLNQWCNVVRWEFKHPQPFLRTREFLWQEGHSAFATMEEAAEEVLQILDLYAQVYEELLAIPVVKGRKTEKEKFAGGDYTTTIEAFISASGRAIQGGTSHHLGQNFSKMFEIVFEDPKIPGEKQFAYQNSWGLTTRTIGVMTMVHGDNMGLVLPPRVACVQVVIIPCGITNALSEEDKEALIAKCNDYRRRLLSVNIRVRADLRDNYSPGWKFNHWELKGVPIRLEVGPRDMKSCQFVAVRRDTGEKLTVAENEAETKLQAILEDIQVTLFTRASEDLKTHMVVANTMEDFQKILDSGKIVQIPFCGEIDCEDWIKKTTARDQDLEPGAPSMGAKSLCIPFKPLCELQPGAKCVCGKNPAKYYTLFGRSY

B1: SEQ ID NO 42 (scFv)
scFv: EVQLLESGGGLVQPGGSLRLSCAVSGFTFSSYYMSWVRQAPGKGLEWVSLISPGSGSIYYADSVKGRFTISRDNSKNTLYLQMNSLRAEDTAVYYCARTGWLFDYWGQGTLVTVNSGGGGSGGGGSGGGGSQSVLTQPPSASGTPGQRVTISCSGSSSNIGNNAVNWYQQLPGTAPKLLIYSNSHRPSGVPDRFSGSKSGTSASLAISGLRSEDEADYYCGSWDASLNGYVFGGGTKLTVL
Consider B1, for which the binding result is “binds”.

B2: SEQ ID NO 28 (scFv)
scFv: EVQLLESGGGLVQPGGSLRLSCAASGFTFSNYAMSWVRQAPGKGLEWVSGIYHGGGNKYYADSVKGRFTISRDNSKNTLYLQMNSLRAEDTAVYYCARTRTLFDYWGQGTLVTVSSGGGGSGGGGSGGGGSQSVLTQPPSASGTPGQRVTISCTGSSSNIGNNAVSWYQQLPGTAPKLLIYANSHRPSGVPDRFSGSKSGTSASLAISGLRSEDEADYYCGTWDASLSGYVFGGGTKLTVL
With B2, the binding result was “binds”.
